According to patent publication US20070111265A1, “Ligands for mineralocorticoid receptor (MR) and methods for screening for or designing MR ligands” (Van Andel Research Institute, priority 2005, published 2007):

What was measured:
[1] = molecular target: VP16-MR LBD (K782E) (human) (UniProt P08235); test: cell-based or functional assay
[2] = molecular target: VP16-MR LBD (residues 727-984) (human) (UniProt P08235); test: cell-based or functional assay
Chain of VP16-MR LBD (residues 727-984) (human) (P08235 727-984 limits assumed): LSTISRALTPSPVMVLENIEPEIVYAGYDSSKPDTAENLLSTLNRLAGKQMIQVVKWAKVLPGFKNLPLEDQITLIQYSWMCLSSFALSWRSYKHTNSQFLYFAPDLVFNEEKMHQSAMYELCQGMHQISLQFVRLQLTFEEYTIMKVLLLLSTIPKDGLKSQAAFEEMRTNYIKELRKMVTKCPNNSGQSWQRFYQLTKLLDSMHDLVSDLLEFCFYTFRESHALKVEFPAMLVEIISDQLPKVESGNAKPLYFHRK

Chain of VP16-MR LBD (K782E) (human) (P08235 727-984 K782E): as the sequence (P08235 727-984 limits assumed) above, with K56E counted along it

Gal4-SRC1-4 (GAL4-DBD fused with SRC1 residues 1240-1441) (from UniProt P04386 1-147; Q15788 1240-1441)
activation of the reporter driven by the GAL4 DNA-binding sites (mammalian two hybrid, luciferase) [1]: 1.7 fold | activation of the reporter driven by the GAL4 DNA-binding sites (mammalian two hybrid, luciferase) [2]: 7 fold
